This is an account of results in patent publication US10800813 (Bicycle, dated 2020).

Numbered stars: 1 amine (or outer) side, 2 acyl side, 3 side chain; on linkers, the order of the positions; unused ones are H or OH. Bridge positions count the residues as written; N and C are the ends. Square brackets hold non-standard residues; d marks the D form. Ind = L-indoline-2-carboxylic acid, O=C([C@@H]1Cc2ccccc2N1[*:1])[*:2]; Bip = N[C@@H](Cc1ccc(-c2ccccc2)cc1)C(=O)O; Tpi = O=C(O)[C@@H]1Cc2c([nH]c3ccccc23)CN1; Dip = N[C@H](C(=O)O)C(c1ccccc1)c1ccccc1; 1Nal = N[C@@H](Cc1cccc2ccccc12)C(=O)O; 2Nal = N[C@@H](Cc1ccc2ccccc2c1)C(=O)O; TBMB = c1c(C[*:1])cc(C[*:3])cc1C[*:2]; Hyp = O=C(O)[C@@H]1C[C@@H](O)CN1; 3Pal = N[C@@H](Cc1cccnc1)C(=O)O; 4Pal = N[C@@H](Cc1ccncc1)C(=O)O; Tic = O=C(O)[C@@H]1Cc2ccccc2CN1; Cha = N[C@@H](CC1CCCCC1)C(=O)O; 4FluoPro = 4-fluoroproline; Pip = O=C(O)[C@@H]1CCCCN1

First the molecules themselves.
B1: Ac-(06-34-18) Cha2 (peptide)
peptide: Ac-CS[Cha]PARCLHQDLC-NH2
modifications: linker 1-7-13 via TBMB
SMILES: CC(=O)N[C@H]1CSCc2cc3cc(c2)CSC[C@H](NC(=O)[C@H](CCCNC(=N)N)NC(=O)[C@H](C)NC(=O)[C@@H]2CCCN2C(=O)[C@H](CC2CCCCC2)NC(=O)[C@H](CO)NC1=O)C(=O)N[C@@H](CC(C)C)C(=O)N[C@@H](Cc1c[nH]cn1)C(=O)N[C@@H](CCC(N)=O)C(=O)N[C@@H](CC(=O)O)C(=O)N[C@@H](CC(C)C)C(=O)N[C@H](C(N)=O)CSC3
B2: Ac-(06-34-18) 3,3-DPA2 (peptide)
peptide: Ac-CS[Dip]PARCLHQDLC-NH2
modifications: linker 1-7-13 via TBMB
SMILES: CC(=O)N[C@H]1CSCc2cc3cc(c2)CSC[C@H](NC(=O)[C@H](CCCNC(=N)N)NC(=O)[C@H](C)NC(=O)[C@@H]2CCCN2C(=O)[C@H](C(c2ccccc2)c2ccccc2)NC(=O)[C@H](CO)NC1=O)C(=O)N[C@@H](CC(C)C)C(=O)N[C@@H](Cc1c[nH]cn1)C(=O)N[C@@H](CCC(N)=O)C(=O)N[C@@H](CC(=O)O)C(=O)N[C@@H](CC(C)C)C(=O)N[C@H](C(N)=O)CSC3
B3: Ac-(06-34-18) NorHar2 (peptide)
peptide: Ac-CS[Tpi]PARCLHQDLC-NH2
modifications: linker 1-7-13 via TBMB
SMILES: CC(=O)N[C@H]1CSCc2cc3cc(c2)CSC[C@H](NC(=O)[C@H](CCCNC(=N)N)NC(=O)[C@H](C)NC(=O)[C@@H]2CCCN2C(=O)[C@@H]2Cc4c([nH]c5ccccc45)CN2C(=O)[C@H](CO)NC1=O)C(=O)N[C@@H](CC(C)C)C(=O)N[C@@H](Cc1c[nH]cn1)C(=O)N[C@@H](CCC(N)=O)C(=O)N[C@@H](CC(=O)O)C(=O)N[C@@H](CC(C)C)C(=O)N[C@H](C(N)=O)CSC3
B4: Ac-(06-34-18) 4Pal2 (peptide)
peptide: Ac-CS[4Pal]PARCLHQDLC-NH2
modifications: linker 1-7-13 via TBMB
SMILES: CC(=O)N[C@H]1CSCc2cc3cc(c2)CSC[C@H](NC(=O)[C@H](CCCNC(=N)N)NC(=O)[C@H](C)NC(=O)[C@@H]2CCCN2C(=O)[C@H](Cc2ccncc2)NC(=O)[C@H](CO)NC1=O)C(=O)N[C@@H](CC(C)C)C(=O)N[C@@H](Cc1c[nH]cn1)C(=O)N[C@@H](CCC(N)=O)C(=O)N[C@@H](CC(=O)O)C(=O)N[C@@H](CC(C)C)C(=O)N[C@H](C(N)=O)CSC3
B5: Ac-(06-34-18) 2NAL2 (peptide)
peptide: Ac-CS[2Nal]PARCLHQDLC-NH2
modifications: linker 1-7-13 via TBMB
SMILES: CC(=O)N[C@H]1CSCc2cc3cc(c2)CSC[C@H](NC(=O)[C@H](CCCNC(=N)N)NC(=O)[C@H](C)NC(=O)[C@@H]2CCCN2C(=O)[C@H](Cc2ccc4ccccc4c2)NC(=O)[C@H](CO)NC1=O)C(=O)N[C@@H](CC(C)C)C(=O)N[C@@H](Cc1c[nH]cn1)C(=O)N[C@@H](CCC(N)=O)C(=O)N[C@@H](CC(=O)O)C(=O)N[C@@H](CC(C)C)C(=O)N[C@H](C(N)=O)CSC3
B6: Ac-(06-34-18) 4,4,BPal2 (peptide)
peptide: Ac-CS[Bip]PARCLHQDLC-NH2
modifications: linker 1-7-13 via TBMB
SMILES: CC(=O)N[C@H]1CSCc2cc3cc(c2)CSC[C@H](NC(=O)[C@H](CCCNC(=N)N)NC(=O)[C@H](C)NC(=O)[C@@H]2CCCN2C(=O)[C@H](Cc2ccc(-c4ccccc4)cc2)NC(=O)[C@H](CO)NC1=O)C(=O)N[C@@H](CC(C)C)C(=O)N[C@@H](Cc1c[nH]cn1)C(=O)N[C@@H](CCC(N)=O)C(=O)N[C@@H](CC(=O)O)C(=O)N[C@@H](CC(C)C)C(=O)N[C@H](C(N)=O)CSC3
B7: Ac-(06-34-18) 3Pal2 (peptide)
peptide: Ac-CS[3Pal]PARCLHQDLC-NH2
modifications: linker 1-7-13 via TBMB
SMILES: CC(=O)N[C@H]1CSCc2cc3cc(c2)CSC[C@H](NC(=O)[C@H](CCCNC(=N)N)NC(=O)[C@H](C)NC(=O)[C@@H]2CCCN2C(=O)[C@H](Cc2cccnc2)NC(=O)[C@H](CO)NC1=O)C(=O)N[C@@H](CC(C)C)C(=O)N[C@@H](Cc1c[nH]cn1)C(=O)N[C@@H](CCC(N)=O)C(=O)N[C@@H](CC(=O)O)C(=O)N[C@@H](CC(C)C)C(=O)N[C@H](C(N)=O)CSC3
B8: Ac-(06-34-18) 1NAL2 (peptide)
peptide: Ac-CS[1Nal]PARCLHQDLC-NH2
modifications: linker 1-7-13 via TBMB
SMILES: CC(=O)N[C@H]1CSCc2cc3cc(c2)CSC[C@H](NC(=O)[C@H](CCCNC(=N)N)NC(=O)[C@H](C)NC(=O)[C@@H]2CCCN2C(=O)[C@H](Cc2cccc4ccccc24)NC(=O)[C@H](CO)NC1=O)C(=O)N[C@@H](CC(C)C)C(=O)N[C@@H](Cc1c[nH]cn1)C(=O)N[C@@H](CCC(N)=O)C(=O)N[C@@H](CC(=O)O)C(=O)N[C@@H](CC(C)C)C(=O)N[C@H](C(N)=O)CSC3
B9: Ac-(06-34-18) Tic3 (peptide)
peptide: Ac-CSW[Tic]ARCLHQDLC-NH2
modifications: linker 1-7-13 via TBMB
SMILES: CC(=O)N[C@H]1CSCc2cc3cc(c2)CSC[C@H](NC(=O)[C@H](CCCNC(=N)N)NC(=O)[C@H](C)NC(=O)[C@@H]2Cc4ccccc4CN2C(=O)[C@H](Cc2c[nH]c4ccccc24)NC(=O)[C@H](CO)NC1=O)C(=O)N[C@@H](CC(C)C)C(=O)N[C@@H](Cc1c[nH]cn1)C(=O)N[C@@H](CCC(N)=O)C(=O)N[C@@H](CC(=O)O)C(=O)N[C@@H](CC(C)C)C(=O)N[C@H](C(N)=O)CSC3
B10: Ac-(06-34-18) 4FluoPro3 (peptide)
peptide: Ac-CSW[4FluoPro]ARCLHQDLC-NH2
modifications: linker 1-7-13 via TBMB
B11: Ac-(06-34-18) HyP3 (peptide)
peptide: Ac-CSW[Hyp]ARCLHQDLC-NH2
modifications: linker 1-7-13 via TBMB
SMILES: CC(=O)N[C@H]1CSCc2cc3cc(c2)CSC[C@H](NC(=O)[C@H](CCCNC(=N)N)NC(=O)[C@H](C)NC(=O)[C@@H]2C[C@@H](O)CN2C(=O)[C@H](Cc2c[nH]c4ccccc24)NC(=O)[C@H](CO)NC1=O)C(=O)N[C@@H](CC(C)C)C(=O)N[C@@H](Cc1c[nH]cn1)C(=O)N[C@@H](CCC(N)=O)C(=O)N[C@@H](CC(=O)O)C(=O)N[C@@H](CC(C)C)C(=O)N[C@H](C(N)=O)CSC3
B12: Ac-(06-34-18) Ind3 (peptide)
peptide: Ac-CSW[Ind]ARCLHQDLC-NH2
modifications: linker 1-7-13 via TBMB
SMILES: CC(=O)N[C@H]1CSCc2cc3cc(c2)CSC[C@H](NC(=O)[C@H](CCCNC(=N)N)NC(=O)[C@H](C)NC(=O)[C@@H]2Cc4ccccc4N2C(=O)[C@H](Cc2c[nH]c4ccccc24)NC(=O)[C@H](CO)NC1=O)C(=O)N[C@@H](CC(C)C)C(=O)N[C@@H](Cc1c[nH]cn1)C(=O)N[C@@H](CCC(N)=O)C(=O)N[C@@H](CC(=O)O)C(=O)N[C@@H](CC(C)C)C(=O)N[C@H](C(N)=O)CSC3
B13: Ac-(06-34-18) NorHar3 (peptide)
peptide: Ac-CSW[Tpi]ARCLHQDLC-NH2
modifications: linker 1-7-13 via TBMB
SMILES: CC(=O)N[C@H]1CSCc2cc3cc(c2)CSC[C@H](NC(=O)[C@H](CCCNC(=N)N)NC(=O)[C@H](C)NC(=O)[C@@H]2Cc4c([nH]c5ccccc45)CN2C(=O)[C@H](Cc2c[nH]c4ccccc24)NC(=O)[C@H](CO)NC1=O)C(=O)N[C@@H](CC(C)C)C(=O)N[C@@H](Cc1c[nH]cn1)C(=O)N[C@@H](CCC(N)=O)C(=O)N[C@@H](CC(=O)O)C(=O)N[C@@H](CC(C)C)C(=O)N[C@H](C(N)=O)CSC3
B14: Ac-(06-34-18) Pip3 (peptide)
peptide: Ac-CSW[Pip]ARCLHQDLC-NH2
modifications: linker 1-7-13 via TBMB
SMILES: CC(=O)N[C@H]1CSCc2cc3cc(c2)CSC[C@H](NC(=O)[C@H](CCCNC(=N)N)NC(=O)[C@H](C)NC(=O)[C@@H]2CCCCN2C(=O)[C@H](Cc2c[nH]c4ccccc24)NC(=O)[C@H](CO)NC1=O)C(=O)N[C@@H](CC(C)C)C(=O)N[C@@H](Cc1c[nH]cn1)C(=O)N[C@@H](CCC(N)=O)C(=O)N[C@@H](CC(=O)O)C(=O)N[C@@H](CC(C)C)C(=O)N[C@H](C(N)=O)CSC3
B15: Ac-(06-34-18) Phe2 4Pal4 (peptide)
peptide: Ac-CSFP[4Pal]RCLHQDLC-NH2
modifications: linker 1-7-13 via TBMB
SMILES: CC(=O)N[C@H]1CSCc2cc3cc(c2)CSC[C@H](NC(=O)[C@H](CCCNC(=N)N)NC(=O)[C@H](Cc2ccncc2)NC(=O)[C@@H]2CCCN2C(=O)[C@H](Cc2ccccc2)NC(=O)[C@H](CO)NC1=O)C(=O)N[C@@H](CC(C)C)C(=O)N[C@@H](Cc1c[nH]cn1)C(=O)N[C@@H](CCC(N)=O)C(=O)N[C@@H](CC(=O)O)C(=O)N[C@@H](CC(C)C)C(=O)N[C@H](C(N)=O)CSC3
B16: Ac-(06-34-18) Phe2 1Nal4 (peptide)
peptide: Ac-CSFP[1Nal]RCLHQDLC-NH2
modifications: linker 1-7-13 via TBMB
SMILES: CC(=O)N[C@H]1CSCc2cc3cc(c2)CSC[C@H](NC(=O)[C@H](CCCNC(=N)N)NC(=O)[C@H](Cc2cccc4ccccc24)NC(=O)[C@@H]2CCCN2C(=O)[C@H](Cc2ccccc2)NC(=O)[C@H](CO)NC1=O)C(=O)N[C@@H](CC(C)C)C(=O)N[C@@H](Cc1c[nH]cn1)C(=O)N[C@@H](CCC(N)=O)C(=O)N[C@@H](CC(=O)O)C(=O)N[C@@H](CC(C)C)C(=O)N[C@H](C(N)=O)CSC3
B17: Ac-(06-34-18) Phe2 2Nal4 (peptide)
peptide: Ac-CSFP[2Nal]RCLHQDLC-NH2
modifications: linker 1-7-13 via TBMB
B18: Ac-(06-34-18) Phe2 4,4-BPal4 (peptide)
peptide: Ac-CSFP[Bip]RCLHQDLC-NH2
modifications: linker 1-7-13 via TBMB

The term Ki denotes the dissociation constant of the complex between target and ligand, obtained from inhibition or displacement. A higher Ki goes with lower affinity.

The target of the first test is T1, human plasma Kallikrein (human, UniProt P03952 20-638, limits assumed).
T1 construct: also called hPK; human PK
T1 sequence (P03952 20-638 limits assumed): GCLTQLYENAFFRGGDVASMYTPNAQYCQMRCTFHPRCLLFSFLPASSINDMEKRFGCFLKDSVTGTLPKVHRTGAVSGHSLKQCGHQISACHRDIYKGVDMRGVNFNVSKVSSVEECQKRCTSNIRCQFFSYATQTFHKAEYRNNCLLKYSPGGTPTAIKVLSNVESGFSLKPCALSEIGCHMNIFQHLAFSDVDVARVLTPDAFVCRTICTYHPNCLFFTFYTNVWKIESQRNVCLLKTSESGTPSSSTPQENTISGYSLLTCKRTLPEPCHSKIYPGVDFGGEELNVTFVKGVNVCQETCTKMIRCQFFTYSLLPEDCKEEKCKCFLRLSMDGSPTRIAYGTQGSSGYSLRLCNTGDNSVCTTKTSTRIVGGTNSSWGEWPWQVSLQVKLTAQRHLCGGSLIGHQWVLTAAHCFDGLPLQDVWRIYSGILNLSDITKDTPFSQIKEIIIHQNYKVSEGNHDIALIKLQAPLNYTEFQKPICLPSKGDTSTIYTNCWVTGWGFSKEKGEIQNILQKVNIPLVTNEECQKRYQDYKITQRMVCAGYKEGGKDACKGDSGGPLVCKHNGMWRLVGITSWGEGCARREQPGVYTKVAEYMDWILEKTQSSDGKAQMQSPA
The experiment in a line: enzyme inhibition assay.
Regarding B1, the Ki turned out to be 4.7 nM.
For B2, affinity was put at a Ki of 1.5 nM.
Same read-out and setting: the same measure for B3: 24 nM; for B4: 72 nM.
The same measure, in the same setting: the same measure for B5: 0.5 nM; for B6: 464 nM; for B7: 59 nM.
As for B8, the Ki came out at 10.7 nM.

The target in a further test is T1, human plasma Kallikrein. The experiment in a line: enzyme inhibition assay. This is another data set of the same source.
The molecule B9 yielded a Ki of 13.5 nM. This counts as double-digit nanomolar.
On the same count and under the same terms, next, B10: 0.24 nM; B11: 0.41 nM; B12: 1.35 nM.
B13 came in with a Ki of 2.99 nM.
On to B14, for which the Ki turned out to be 0.26 nM.

For a further test, the target named is T1, human plasma Kallikrein. Briefly: enzyme inhibition assay. The source holds these as a separate data set.
Molecule B15 showed an inhibition constant Ki of 2.2 nM.
Still for that read-out and setting: the same measure for B16: 13.5 nM.
Still for that read-out and setting: next, B17: 7.27 nM; B18: 10.5 nM.
